One molecule from US20180055925A1 (UNITED STATES OF AMERICA AS REPRESENTED BY THE SECRETARY …, published 2018) can be followed below.

In the experiment the target is T1, SpoIVA^AF488 (His6-tagged cysteine-less SpoIVA variant, C98S, with a single engineered N-terminal cysteine, … (Bacillus subtilis, UniProt P35149 1-492, Alexa Fluor 488 C5-maleimide on the single engineered cysteine at the N-terminus (second residue))).
T1 construct: SpoIVA polymerizes in the presence of ATP; also called SpoIVA^A488
T1 sequence: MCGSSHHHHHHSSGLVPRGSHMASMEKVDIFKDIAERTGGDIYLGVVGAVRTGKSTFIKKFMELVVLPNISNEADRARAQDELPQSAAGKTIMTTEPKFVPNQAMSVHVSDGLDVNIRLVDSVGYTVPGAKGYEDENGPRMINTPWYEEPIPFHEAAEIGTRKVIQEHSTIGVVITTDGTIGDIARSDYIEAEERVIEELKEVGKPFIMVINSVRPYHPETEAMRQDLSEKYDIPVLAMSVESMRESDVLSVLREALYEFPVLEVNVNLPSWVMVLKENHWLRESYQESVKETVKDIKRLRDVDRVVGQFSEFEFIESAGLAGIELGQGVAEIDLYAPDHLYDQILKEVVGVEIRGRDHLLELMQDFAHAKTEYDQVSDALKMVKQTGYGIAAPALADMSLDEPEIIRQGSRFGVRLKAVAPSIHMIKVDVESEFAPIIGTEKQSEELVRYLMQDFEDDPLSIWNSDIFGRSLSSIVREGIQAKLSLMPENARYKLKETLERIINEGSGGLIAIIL
The experiment is described as follows: fluorescence microscopy of SpoVM-coated SSLBs incubated with increasing SpoIVA^AF488. The method, then:
SpoVM-coated SSLBs were collected by centrifugation at 13,000×g for 1 minute, and then were incubated with varying concentrations of SpoIVA^AF488 in a final volume of 100 μL buffer A containing 10 mM MgCl₂ and 4 mM ATP, overnight at room temperature with gentle inversion. SSHEL particles were collected by centrifugation and resuspended in 100 μL buffer A for microscopy. For competition assays, SpoVM-SSLBs were incubated with 0.006 μM SpoIVA^A488 in the presence or absence of 4 mM ATP in buffer A containing 10 mM MgCl₂. The fluorescent SSLBs were collected by centrifugation, and resuspended with 100 μL buffer A containing 5 μM unlabeled SpoIVA. 5 μL aliquots were taken at indicated time points for microscopy.
To test this model of basement layer assembly in vitro, spherical supported lipid bilayers (SSLBs) were constructed by coating 2 μm-diameter silica beads with a phospholipid bilayer (Bayerl and Bloom, Biophys J 58, 357-362 (1990) and Gopalakrishnan and Rouiller, Langmuir 25, 5455-5458 (2009)) to mimic the surface of the forespore. […] The SpoVM-coated SSLBs were then incubated with increasing concentrations of SpoIVA^AF488 and measured its adsorption using fluorescence microscopy (FIG. 1C). […] At higher concentrations of SpoIVA^AF488 the heterogeneity in fluorescence between SSLBs was reduced and SpoIVA^AF488 adsorption approached saturation (FIG. 1C, 1E).

B1: SpoVM (synthesized 26 amino acid peptide, adsorbed on spherical supported lipid bilayers) (peptide)
peptide: MKFYTIKLPKFLGGIVRAMLGSFRKD
notes: also called SpoVM peptide; SpoVM-coated SSLBs
Regarding B1, the binding result is recorded as “binds”.
